Assay results: article PMC11379886, “Insights into phosphoethanolamine cellulose synthesis and secretion across the Gram-negative cell envelope” (Nature Communications, 2024)

B5: Escherichia coli BcsB (natural protein)
chain: TPATQPLINAEPAVAAQTEQNPQVGQVMPGVQGADAPVVAQNGPSRDVKLTFAQIAPPPGSMVLRGINPNGSIEFGMRSDEVVTKAMLNLEYTPSPSLLPVQSQLKVYLNDELMGVLPVTKEQLGKKTLAQMPINPLFISDFNRVRLEFVGHYQDVCEKPASTTLWLDVGRSSGLDLTYQTLNVKNDLSHFPVPFFDPSDNRTNTLPMVFAGAPDVGLQQASAIVASWFGSRSGWRGQNFPVLYNQLPDRNAIVFATNDKRPDFLRDHPAVKAPVIEMINHPQNPYVKLLVVFGRDDKDLLQAAKGIAQGNILFRGESVVVNEVKPLLPRKPYDAPNWVRTDRPVTFGELKTYEEQLQSSGLEPAAINVSLNLPPDLYLMRSTGIDMDINYRYTMPPVKDSSRMDISLNNQFLQSFNLSSKQEANRLLLRIPVLQGLLDGKTDVSIPALKLGATNQLRFDFEYMNPMPGGSVDNCITFQPVQNHVVIGDDSTIDFSKYYHFIPMPDLRAFANAGFPFSRMADLSQTITVMPKAPNEAQMETLLNTVGFIGAQTGFPAINLTVTDDGSTIQGKDADIMIIGGIPDKLKDDKQIDLLVQATESWVKTPMRQTPFPGIVPDESDRAAETRSTLTSSGAMAAVIGFQSPYNDQRSVIALLADSPRGYEMLNDAVNDSGKRATMFGSVAVIRESGINSLRVGDVYYVGHLPWFERVWYALANHPILLAVLAAISVILLAWVLWRLLRIISRRRLNPDNE
notes: BcsB, periplasmic inner-membrane-anchored subunit of the E. coli cellulose synthase complex; In the BcsB-BcsC fusion made from the same plasmid the BcsB part is residues 55-779; also called Ec BcsB; not shown: Strep-tag II, N-terminal, kept

Legend:
[1] = molecular target: the molecule itself; test: cryo-EM structure; BcsC incubated with purified BcsZ at a molar 1:1.5; single particle analysis, about 2.7 Å for BcsZ
[2] = molecular target: T1, Escherichia coli BcsB (residues 55–779), as it stands in the BcsB-BcsC fusion (Escherichia coli, UniProt P37652 55-779); test: cryo-EM structure; BcsC TPR#1-4 fused to the N-terminus of BcsB, co-expressed with all other Bcs components, purified in detergent, about 2.2 mg/mL; focused refinement of a tetrameric BcsB assembly, about 3.2 Å; conditions: both partners purified
T1 construct: E. coli BcsB, residues 55-779; Joined on one chain with Strep-tag II, BcsC 21-179 and a GSGSGS linker at its N-terminus (molecule m11); written apart for the BcsB-BcsC pair of the structure; source: E. coli C43, as part of the BcsB-BcsC fusion chain, co-purified with the Bcs complex
T1 sequence (looked up): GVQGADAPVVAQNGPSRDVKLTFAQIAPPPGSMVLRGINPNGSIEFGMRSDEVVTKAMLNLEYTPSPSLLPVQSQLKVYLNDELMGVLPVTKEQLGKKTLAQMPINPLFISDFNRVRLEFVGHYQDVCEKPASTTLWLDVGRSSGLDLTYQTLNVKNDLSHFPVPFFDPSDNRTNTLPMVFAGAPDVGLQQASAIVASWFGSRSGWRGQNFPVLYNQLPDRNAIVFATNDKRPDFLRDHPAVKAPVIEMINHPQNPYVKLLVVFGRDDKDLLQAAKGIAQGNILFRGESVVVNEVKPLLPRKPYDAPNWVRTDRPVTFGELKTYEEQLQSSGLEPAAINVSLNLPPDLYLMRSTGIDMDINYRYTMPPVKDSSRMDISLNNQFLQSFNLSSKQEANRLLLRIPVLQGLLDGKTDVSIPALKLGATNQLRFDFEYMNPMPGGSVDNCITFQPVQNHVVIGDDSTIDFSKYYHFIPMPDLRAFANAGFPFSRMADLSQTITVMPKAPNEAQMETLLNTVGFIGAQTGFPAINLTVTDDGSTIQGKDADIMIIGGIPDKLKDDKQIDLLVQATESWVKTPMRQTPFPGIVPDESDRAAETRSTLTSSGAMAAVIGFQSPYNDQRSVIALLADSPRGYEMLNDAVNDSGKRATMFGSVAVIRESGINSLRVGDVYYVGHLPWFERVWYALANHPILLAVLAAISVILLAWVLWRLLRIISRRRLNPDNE

[3] = molecular target: the molecule itself; test: cryo-EM structure; reprocessing of the previously published cryo-EM data (EMD-23267) of the co-expressed, co-purified Ec inner membrane-associated Bcs complex, focused on BcsA-BcsG; ~5.7 Å; AlphaFold2 model docked as rigid bodies
[4] = molecular target: the molecule itself; test: cryo-EM structure; BcsC TPR#1-4 fused to the N-terminus of BcsB, co-expressed with all other Bcs components, purified in detergent, about 2.2 mg/mL; focused refinement of a tetrameric BcsB assembly, about 3.2 Å
[5] = molecular target: the molecule itself; test: cryo-EM structure; purified Ec Bcs inner membrane complex in MSP2N2 nanodiscs incubated with the separately purified periplasmic domain of BcsC (TPR#1-18) at a molar ratio of 1:5 for 1 h on ice; low-resolution map
Escherichia coli BcsB = molecular target: B5; test: as above; conditions: both partners purified

B1: Escherichia coli cellulase BcsZ (enzyme)
chain: ACTWPAWEQFKKDYISQEGRVIDPSDARKITTSEGQSYGMFSALAANDRAAFDNILDWTQNNLAQGSLKERLPAWLWGKKENSKWEVLDSNSASDGDVWMAWSLLEAGRLWKEQRYTDIGSALLKRIAREEVVTVPGLGSMLLPGKVGFAEDNSWRFNPSYLPPTLAQYFTRFGAPWTTLRETNQRLLLETAPKGFSPDWVRYEKDKGWQLKAEKTLISSYDAIRVYMWVGMMPDSDPQKARMLNRFKPMATFTEKNGYPPEKVDVATGKAQGKGPVGFSAAMLPFLQNRDAQAVQRQRVADNFPGSDAYYNYVLTLFGQGWDQHRFRFSTKGELLPDWGQECANSH
notes: End of the His tag read from the plasmid's name; also called Ec BcsZ
Q: B1 was tested. Which “stoichiometry N” value [1] did it give?
A: Its value is 4.

B2: Escherichia coli BcsC TPR#1–4 (residues 21–179), as it stands in the BcsB-BcsC fusion (domain or fragment, UniProt P37650 21-179, looked up)
chain: VEAAPTAQQQLLEQVRLGEATHREDLVQQSLYRLELIDPNNPDVVAARFRSLLRQGDIDGAQKQLDRLSQLAPSSNAYKSSRTTMLLSTPDGRQALQQARLQATTGHAEEAVASYNKLFNGAPPEGDIAVEYWSTVAKIPARRGEAINQLKRINADAPG
notes: N-terminal four TPRs of E. coli BcsC (TPR#1-4), residues 21-179; Joined on one chain with BcsB 55-779 through a GSGSGS linker (molecule m11); written apart for the BcsB-BcsC pair of the structure; also called BcsC's TPRs#1–4; BcsC N-terminal TPRs; source: E. coli C43, as part of the BcsB-BcsC fusion chain, co-purified with the Bcs complex; not shown: Strep-tag II, N-terminal, kept
Q: Does B2 bind [2]?
A: Result: binds

B3: Escherichia coli pEtN transferase BcsG, FLAG-tagged (enzyme, UniProt P37659 1-559, looked up)
chain: MTQFTQNTAMPSSLWQYWRGLSGWNFYFLVKFGLLWAGYLNFHPLLNLVFAAFLLMPLPRYSLHRLRHWIALPIGFALFWHDTWLPGPESIMSQGSQVAGFSTDYLIDLVTRFINWQMIGAIFVLLVAWLFLSQWIRITVFVVAILLWLNVLTLAGPSFSLWPAGQPTTTVTTTGGNAAATVAATGGAPVVGDMPAQTAPPTTANLNAWLNNFYNAEAKRKSTFPSSLPADAQPFELLVINICSLSWSDIEAAGLMSHPLWSHFDIEFKNFNSATSYSGPAAIRLLRASCGQTSHTNLYQPANNDCYLFDNLSKLGFTQHLMMGHNGQFGGFLKEVRENGGMQSELMDQTNLPVILLGFDGSPVYDDTAVLNRWLDVTEKDKNSRSATFYNTLPLHDGNHYPGVSKTADYKARAQKFFDELDAFFTELEKSGRKVMVVVVPEHGGALKGDRMQVSGLRDIPSPSITDVPVGVKFFGMKAPHQGAPIVIEQPSSFLAISDLVVRVLDGKIFTEDNVDWKKLTSGLPQTAPVSENSNAVVIQYQDKPYVRLNGGDWVPYPQ
notes: present as the full-length enzyme in the analysed sample; End of the FLAG tag read from the plasmid's name (G-FLAG); also called Ec BcsG; source: E. coli C43 (DE3), co-expressed with the other Bcs components or with the BcsA chimera, Rs BcsB and BcsF; co-purified; not shown: FLAG, C-terminal, kept
Q: Which “stoichiometry N” value [3] does the source give for B3 here?
A: Its value is 3.

B4: BcsB-BcsC fusion: BcsC TPR#1–4 fused to the N-terminus of Escherichia coli BcsB (other)
chain: VEAAPTAQQQLLEQVRLGEATHREDLVQQSLYRLELIDPNNPDVVAARFRSLLRQGDIDGAQKQLDRLSQLAPSSNAYKSSRTTMLLSTPDGRQALQQARLQATTGHAEEAVASYNKLFNGAPPEGDIAVEYWSTVAKIPARRGEAINQLKRINADAPGGSGSGSGVQGADAPVVAQNGPSRDVKLTFAQIAPPPGSMVLRGINPNGSIEFGMRSDEVVTKAMLNLEYTPSPSLLPVQSQLKVYLNDELMGVLPVTKEQLGKKTLAQMPINPLFISDFNRVRLEFVGHYQDVCEKPASTTLWLDVGRSSGLDLTYQTLNVKNDLSHFPVPFFDPSDNRTNTLPMVFAGAPDVGLQQASAIVASWFGSRSGWRGQNFPVLYNQLPDRNAIVFATNDKRPDFLRDHPAVKAPVIEMINHPQNPYVKLLVVFGRDDKDLLQAAKGIAQGNILFRGESVVVNEVKPLLPRKPYDAPNWVRTDRPVTFGELKTYEEQLQSSGLEPAAINVSLNLPPDLYLMRSTGIDMDINYRYTMPPVKDSSRMDISLNNQFLQSFNLSSKQEANRLLLRIPVLQGLLDGKTDVSIPALKLGATNQLRFDFEYMNPMPGGSVDNCITFQPVQNHVVIGDDSTIDFSKYYHFIPMPDLRAFANAGFPFSRMADLSQTITVMPKAPNEAQMETLLNTVGFIGAQTGFPAINLTVTDDGSTIQGKDADIMIIGGIPDKLKDDKQIDLLVQATESWVKTPMRQTPFPGIVPDESDRAAETRSTLTSSGAMAAVIGFQSPYNDQRSVIALLADSPRGYEMLNDAVNDSGKRATMFGSVAVIRESGINSLRVGDVYYVGHLPWFERVWYALANHPILLAVLAAISVILLAWVLWRLLRIISRRRLNPDNE
notes: N-terminal four TPRs of E. coli BcsC (TPR#1-4), residues 21-179; linker; E. coli BcsB, residues 55-779; The best map came from a tetrameric BcsB assembly; a fully assembled complex was also seen; also called nSS-Strep-TPR(#1-4)-(GS)3-B; engineered BcsB-BcsC fusion; source: E. coli C43, co-expressed with all other Bcs components, co-purified (Ni-NTA, Strep-Tactin, SEC), in detergent; not shown: …
Q: With B4 as the binder, how does the “stoichiometry N” value [4] read?
A: The value was 4.

Q: With B5 as the binder, how does the “stoichiometry N” value [5] read?
A: Its value is 6.

B6: periplasmic domain of Escherichia coli BcsC (TPR#1–18; residues 24–709) (domain or fragment, UniProt P37650 24-709, looked up)
chain: APTAQQQLLEQVRLGEATHREDLVQQSLYRLELIDPNNPDVVAARFRSLLRQGDIDGAQKQLDRLSQLAPSSNAYKSSRTTMLLSTPDGRQALQQARLQATTGHAEEAVASYNKLFNGAPPEGDIAVEYWSTVAKIPARRGEAINQLKRINADAPGNTGLQNNLALLLFSSDRRDEGFAVLEQMAKSNAGREGASKIWYGQIKDMPVSDASVSALKKYLSIFSDGDSVAAAQSQLAEQQKQLADPAFRARAQGLAAVDSGMAGKAIPELQQAVRANPKDSEALGALGQAYSQKGDRANAVANLEKALALDPHSSNNDKWNSLLKVNRYWLAIQQGDAALKANNPDRAERLFQQARNVDNTDSYAVLGLGDVAMARKDYPAAERYYQQTLRMDSGNTNAVRGLANIYRQQSPEKAEAFIASLSASQRRSIDDIERSLQNDRLAQQAEALENQGKWAQAAALQRQRLALDPGSVWITYRLSQDLWQAGQRSQADTLMRNLAQQKSNDPEQVYAYGLYLSGHDQDRAALAHINSLPRAQWNSNIQELVNRLQSDQVLETANRLRESGKEAEAEAMLRQQPPSTRIDLTLADWAQQRRDYTAARAAYQNVLTREPANADAILGLTEVDIAAGDKAAARSQLAKLPATDNASLNTQRRVALAQAQLGDTAAAQRTFNKLIPQAKSQPPSME
notes: BcsC periplasmic domain, TPR#1-18, residues 24-709, cloned into pET20b; also called BcsC's periplasmic domain; N-terminal 18 TPRs of BcsC; source: E. coli Rosetta 2, periplasmic extract, purified (Ni-NTA, SEC)
Q: Does B6 bind (Escherichia coli BcsB)?
A: Result: binds
